In patent US20150240222A1:

Assays:
FITC-casein [1] = experiment: fluorescence polarization, 6 nM FITC-casein with 0-5 uM Hsp104, 2 mM ATPgS, 25 C
FITC-casein [2] = experiment: cell-based or functional assay

Hsp104A503V (from UniProt P31539 1-908)
Kd (FITC-casein [1]): 80 nM

Hsp104WT (from UniProt P31539 1-908)
Kd (FITC-casein [1]): 65 nM

HAPWT (from UniProt P31539 1-908)
Km of FITC-casein degradation (translocation into ClpP), initial rates against FITC-casein concentration (FITC-casein [2]): 2.88 µM

HAPA503V (from UniProt P31539 1-908)
Km of FITC-casein degradation (translocation into ClpP), initial rates against FITC-casein concentration (FITC-casein [2]): 1.29 µM
